# Data as given in patent US20040143098, “Method for improving plant tolerance to environmental stress” (published 2004).
# What was measured:
# DBF1 [1] = target: DBF1 (Zea mays); assay: EMSA; same buffer; settings: tags: pET28 tag (about 31 aa), expressed in E. coli; label: 32P
# Text: (§1) The following DNA oligonucleotides were used in electrophoretic mobility shift assays: DRE2 (SEQ ID NO 4 and 5), DRE2 m (SEQ ID NOs 6 and 7), DRE1 (SEQ ID NO 8 and 9), DRE1/ABRE1 (SEQ ID NOs 10 and 11), ABRE A (SEQ ID Nos12 and 13). The full-length oligonucleotides were purified by denaturing PAGE. Complementary oligonucleotides were annealed and purified in nondenaturing polyacrylamide gel. The double-stranded oligonucleotides were labelled with α³² P-dATP (3000 Ci/mmol, Amersham) by filling in with the Klenow fragment of the DNA polymerase I (Sambrook et al., 1989) and purified on a NAP5 column (Pharmacia), according to the manufacturers instructions. Unlabeled competitor DNA was filled in with nonradioactive nucleotides.
# (§2) The radioactive probe was incubated with 400 ng of protein in 20 μl of 1× binding buffer (25 mM HEPES, pH 7.8, 75 mM KCl, 5 mM MgCl_{2,} 0.5 mM EDTA, 0.2 mM DTT and 10% glycerol) and 700 ng poly(dl-dC) for 20 min on ice before loading on a 1× Tris-borate-EDTA, 5% (30:0.8 acrylamide-bis) polyacrylamide gel. Electrophoresis was at 10 V/cm at 4° C. In competition assays the protein was incubated with non-radioactive oligonucleotides in 1× binding buffer, on ice for 10 min prior to adding the radioactive probe and continuing with incubation for 20 min more.
# DBF1 [2] = target: DBF1 (Zea mays); assay: EMSA; same buffer; ABRE reported as not bound; settings: tags: pET28 tag (about 31 aa), expressed in E. coli; label: 32P
# Text: as §1, §2
# DBF1 (Zea mays), sequence (chain, as listed by the source): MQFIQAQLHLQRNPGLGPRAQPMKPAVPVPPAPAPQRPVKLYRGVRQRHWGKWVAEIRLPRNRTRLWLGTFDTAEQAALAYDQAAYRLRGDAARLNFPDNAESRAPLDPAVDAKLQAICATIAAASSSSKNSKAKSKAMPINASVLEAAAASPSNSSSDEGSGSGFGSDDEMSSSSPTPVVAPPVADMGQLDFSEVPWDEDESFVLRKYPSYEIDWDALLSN
Binder,binding result (DBF1 [1]),binding result (DBF1 [2])
DRE1 (dsDNA) DNA 1: GGGGTCGAGAAGAACCGAGACGAAGCGGTCGAG DNA 2: GGGGCTCGACCGCTTCGTCTCGGTTCTTCTCGA,no binding,–
ABRE A (dsDNA) DNA 1: TGGAAGCTTCGCGCCACGTGGGCATGAGATCT DNA 2: TGGAGATCTCATGCCCACGTGGCGCGAAGCTT,–,no binding
